Source: patent publication US12611470B2, “Chromatin-opening element for stable long term gene expression” (CZ Biohub SF, LLC, priority 2019, dated 2026)

Test system: P19 cells
Experiment: Lentiviral transduction silencing experiment, UCOE linked to CMV, EF1α, RSV or PGK promoter driving GFP
Type: cell-based, mouse
Settings: for anti-silencing performance across all four tested promoters: CMV, EF1α, RSV, PGK promoters
Excerpt: The graphs show the raw data of measured percent GFP positive cells (% GFP+) for each construct over time. Transduced populations were sorted into triplicate wells using FACS at day 0 (5 days after lentiviral transductions) to begin the study at 100% GFP positive cells. Expression is lost quickly within the first 10 days, and then stabilizes around day 15. Data is reported as mean±SD from biological triplicates. Two positive UCOE controls (A2UCOE, 3′UCOE) and a negative control (no insulator region) were used.
Percent GFP positive cells at the final timepoint (day 26 for CMV and RSV, day 27 for PGK and EF1α) of the lentivirus silencing experiment across the four tested promoters is plotted. P19 cells were FACS-sorted five days after transduction (day 0) and then assayed over a 26 or 27-day time period thereafter. Data is reported as mean±SD from three biological replicates.
Two plasmids (pCS3800: encoding HIV-1 Gag; pCS380: encoding VSVg envelope protein) were used with varying versions of the donor plasmid pCS3799. HEK293T cells were plated at 5×10^6 cells in a 10 cm dish. Twenty-four hours after plating, the three plasmids (10 μg donor, 8 μg pCS3800, 10 μg pCS3801) were co-transfected together using a calcium phosphate protocol (Zufferey, R. T. and Trono, D. (2001) Current Protocols in Human Genetics, 26 (1), 12.10.1-12.10.12; DOI: 10.1002/0471142905.hg1210s26 (55)). The total DNA was brought to 500 μL in water, to which 500 μL of 2×HEPES-buffered saline, pH7.0 (Alfa Aesar) was added and mixed. One-tenth of the total volume (100 μL) of 2.5 M calcium chloride (Sigma-Aldrich) was then added to the mixture, followed by a 20-minute incubation. The mixture was then added to the plate in a dropwise manner. Media was replaced six hours later, and the supernatant was collected at 48 hr after the transfection, filtered through 0.4 μm filter, and frozen at −80° C. in 1 mL aliquots. Lentiviral aliquots were thawed in a 37° C. bead bath before transductions.
P19 cells were plated at 20-30,000 cells/well in 12-well plates one day before transduction. Twenty-four hours after plating, cells were transduced at varying dilutions of the lentiviral stock (ranging from 1:2 to 1:100) in DMEM+10% FBS with 8 μg/mL polybrene (Santa Cruz Biotechnologies). Media was refreshed on P19 cells 24 hours after transduction, and cells were passaged and assayed through a MACSQuant® VYB flow cytometer (Miltenyi Biotec) 48 h after transduction. MOI was determined by reporter expression at this timepoint using the following formula: MOI=ln (1/1-p) where p is the % of cells that are GFP positive at 48 hours post-transduction (Chen, S. et al. (2015) Cell, 160, 1246-1260 (56)).
Cells were FACS-sorted on the BD Influx™ cell sorter at the Stanford FACS Facility using the 488-nm laser and 525/40 filter to assay GFP expression. After gating for singlets and viability, GFP+ gate was drawn to be <0.1% GFP positive in non-transduced P19 cells. GFP+ gates were re-drawn for each promoter set to avoid the ˜10% highest and lowest expressing cells within the GFP+ gate, but the same gate was used for every experimental condition under the same promoter. Triplicate wells of each population (12-15,000 cells/well in a 24-well plate) were collected.
Fluorescence data throughout silencing experiments was obtained using a MACSQuant® VYB flow cytometer (Miltenyi Biotec). EGFP was measured through the 488-nm laser and 525/50 nm band pass filter. Flow cytometry data was analyzed using the FlowJo™ single cell flow cytometry analysis software (Tree Star). After being gated for singlets and viability, GFP+ gates in FlowJo were drawn such that a non-transfected or non-transduced P19 cell population was at 1% GFP+. Median values reported are of cells within the GFP+ gate, both % GFP positive and median are reported with the standard deviation of biological replicates. […]

[1] = Ef1α promoter, day 27 after FACS sort to 100% GFP+

Molecule | efficacy in resisting silencing (CMV promoter) | % GFP+ cells at final timepoint (CMV promoter, day 26) | % GFP+ cells, representative example (one biological replicate) (CMV promoter, day 26) | improvement over A2UCOE (CMV promoter, day 26) | improvement over the negative control (CMV promoter, day 26) | anti-silencing performance across all four tested promoters | efficacy in resisting silencing (Ef1α promoter) | % GFP+ cells at final timepoint [1] | efficacy in resisting silencing (PGK promoter) | % GFP+ cells at final timepoint (PGK promoter, day 27) | efficacy in resisting silencing (RSV promoter) | % GFP+ cells, representative example (one biological replicate) (EF1a promoter, day 27) | GFP positive cells / expression compared to the negative control (Ef1α promoter, final timepoint) | % GFP+ cells, representative example (one biological replicate) (PGK promoter, day 27) | % GFP+ cells at final timepoint (RSV promoter, day 26)
Candidate 6-2: Truncated SRF-UCOE variant having a 478 base pair 5′ end deletion, SEQ ID NO:3 (nucleic acid) DNA: AGCGGCTTCCGCCGGGCTGCTCCGCGGGCGCGTCGGCCATGAGCGAGTTGCCGGGCGACGTGCGGGCGTTTCTGCGGGAGCACCCGAGCCTGCGGCTCCAGACGGACGCCCGCAAGGTTCGCAGCGCGGGAGGGGAACGGAGTGGCGGAGAAGGGCGCAGTTGGGATGAGGGGCTGAGGGGAGGGCAGGGGAGAGGAGAGGGCAGGGGAGAGGGGAGAGGGGAGAGCAGGAGAGAGGGGAAGGCAGGGGAGAGGGCGCGGCGGGATCAGGGGAGGAGAGGGAAGGGGGCGCGGCAGGAGGGGGCACCAGGGAGCGGAGCCCTGGCCCTCCTGACGTCCTGCCCGCCCACGCGTCCGCAGGTGAGGTGCATCCTGACAGGTCACGAGCTGCCCTGCCGCCTGCCGGAGCTCCAGGTCTACACCCGCGGCAAAAAGTACCAGCGGCTGGTCCGCGCCTCCCCGGCCTTCGACTATGCAGAGTTCGAGCCGCACATCGTGCCCAGCACCAAGAACCCGTAGGTGGTC | best-performing population | 55% | 59.2% | 1.4 fold | 4.4 fold | failed to outperform the negative control in 3 of the 4 promoters tested | ineffective | 11% | substantially less effective than the other Candidate 6 sequences | 17% | ineffective | – | – | – | –
Candidate 6-3: Truncated SRF-UCOE variant having a 241 base pair 3′ end deletion, SEQ ID NO:4 (nucleic acid) DNA: GCACACGACCACAATTCCACTGAAAGCATTTTAATACGGAACTTGTCACTCCCAGGGAGCCTCCGCTCAGCCGGCAGTTGGTTCATTTCAATCCCCACGACAACCCTTCAAAGTGCAGGGCAGACAGCAGGTGGCTCTGCCCAGGCGCCTGGATCACAGCCCGGCCTGCAGCCCTCACCTGGGCGCGGGGAGACCCTGAGGACGCTCCTCCAGGCGGCGCTGGCCGGGGCCTGCGGACACGGACGGGCGGGCTGAGCTCCGGGACCCCTCCCCGCGCCCCGCACCCCGCACCCCGCACCCCGCACCCCGCACCCGGCGCTCACCCGTCCCAGCCCCGCCGCCCGCAGCCCCAGCTGCAACGCAGCCACCGCCGCCATCGCACCCGGCCCCGCGGGCGCTTCCGGGACGCAGGAGGCATCTGCATCCGGGGCGCCGCTGAGTCCCGCCCAGAGCCCCGCCCCCGGCTCCAGGTTCTGCGAGCGGCTTCCGCCGGGCTGCTCCGCGGGCGCGTCGGCCATGAGCGAGTTGCCGGGCGACGTGCGGGCGTTTCTGCGGGAGCACCCGAGCCTGCGGCTCCAGACGGACGCCCGCAAGGTTCGCAGCGCGGGAGGGGAACGGAGTGGCGGAGAAGGGCGCAGTTGGGATGAGGGGCTGAGGGGAGGGCAGGGGAGAGGAGAGGGCAGGGGAGAGGGGAGAGGGGAGAGCAGGAGAGAGGGGAAGGCAGGGGAGAGGGCGCGGCGGGATCAGGGGAGGAGAGGGAA | – | 39% | – | – | 3 fold | most consistent activity | – | greater than 65% | – | 49% | – | 69% | more than four times | 47.8% | 66%
